{
  "source": "paper PMC5031806",
  "biological_target": "meMICU1^97-476 (human MICU1 residues 97-476, methylated in vitro by recombinant PRMT1) (human) (UniProt Q9BPX6)",
  "sequence (Q9BPX6 97-476)": "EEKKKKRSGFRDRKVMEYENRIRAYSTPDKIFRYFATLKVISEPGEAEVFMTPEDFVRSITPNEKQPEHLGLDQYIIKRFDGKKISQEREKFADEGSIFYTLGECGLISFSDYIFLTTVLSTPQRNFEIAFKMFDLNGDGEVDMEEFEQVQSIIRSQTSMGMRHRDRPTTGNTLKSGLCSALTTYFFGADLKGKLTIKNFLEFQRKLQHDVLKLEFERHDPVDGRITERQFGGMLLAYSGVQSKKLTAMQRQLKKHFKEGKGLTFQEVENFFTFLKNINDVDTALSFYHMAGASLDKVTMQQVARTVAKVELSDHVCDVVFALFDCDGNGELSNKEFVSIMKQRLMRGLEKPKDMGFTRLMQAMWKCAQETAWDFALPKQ",
  "test": "ITC; IML2^UCP2 (500 μM, syringe) titrated into MICU1 (40 μM, cell); VP-ITC, 25 °C; 20 mM Tris pH 7.0, 500 mM NaCl, 50 mM Arg, 2 mM BME; single site-binding model",
  "data": [
    {"substance": "IML2^UCP2 (chemically synthetized intermembrane loop 2 of UCP2) (from UniProt P55851 147-171) (peptide)", "values": [
      {"measurement": "Kd", "result": 24.6, "unit": "µM"}
    ]}
  ]
}
